# Data from the supplement of paper PMC10567573.
# B1: GFOD1 (parent)
# chain: SDDFCTFQMVLEGGVCCTVTLNFN
# Variants of: B1
# Test: protein stability index of a GFP-peptide fusion (GPS, HEK-293T) (PSI 1-6); higher = more stable
# Settings: c terminus: a fixed tail appended
# 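Also: lentivirally expressed fusions sorted by FACS into six bins by GFP to DsRed ratio, PSI derived from sequencing read proportions per bin multiplied by bin number.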
row,Variant,protein stability index
1,SDDHCTFQMVLEGGVCCTVTLNFN,1.87
2,SDDNCTFQMVLEGGVCCTVTLNFN,3.13
3,SDDICTFQMVLEGGVCCTVTLNFN,3.55
4,SDDLCTFQMVLEGGVCCTVTLNFN,3.55
5,SDDVCTFQMVLEGGVCCTVTLNFN,2.91
6,SDDSCTFQMVLEGGVCCTVTLNFN,2.38
7,SDDRCTFQMVLEGGVCCTVTLNFN,3.19
8,SDDKCTFQMVLEGGVCCTVTLNFN,1.77
9,SDDCCTFQMVLEGGVCCTVTLNFN,3.57
10,SDDQCTFQMVLEGGVCCTVTLNFN,2.56
11,SDDECTFQMVLEGGVCCTVTLNFN,1.81
12,SDDFCTFQMVLEGGVCCTVTLQFN,4.04
13,SDDFCTFQMVLEGGVCCTVTLPFN,2.9
14,SDDFCTFQMVLEGGVCCTVTLWFN,2.88
15,SDDFCTFQMVLEGGVCCTVTLRFN,2.43
16,SDDFCTFQMVLEGGVCCTVTLHFN,2.62
17,SDDFCTFQMVLEGGVCCTVTLEFN,1.62
18,SDDFCTFQMVLEGGVCCTVTLYFN,2.33
19,SDDFCTFQMVLEGGVCCTVTANFN,2.61
20,SDDFCTFQMVLEGGVCCTVTENFN,1.63
21,SDDFCTFQMVLEGGVCCTVTPNFN,2.02
22,SDDFCTFQMVLEGGVCCTVTRNFN,1.55
23,SDDFCTFQMVLEGGVCCTVTDNFN,1.75
24,SDDFCTFQMVLEGGVCCTVTMNFN,2.22

row,Variant,protein stability index
1,SDDFCTFQMVLEGGVCCTVTFNFN,2.73
2,SDDFCTFQMVLEGGVCCTVTGNFN,2.41
3,SDDFCTFMMVLEGGVCCTVTLNFN,3.81
4,SDDFCTFLMVLEGGVCCTVTLNFN,3.02
5,SDDFCTFAMVLEGGVCCTVTLNFN,3.01
6,SDDFCTFYMVLEGGVCCTVTLNFN,1.44
7,SDDFCTFVMVLEGGVCCTVTLNFN,3.25
8,SDDFCTFWMVLEGGVCCTVTLNFN,2.86
9,SDDFCTFEMVLEGGVCCTVTLNFN,2.71
10,SDDFCTFQMVLEGGVCCTVQLNFN,3.57
11,SDDFCTFQMVLEGGVCCTVHLNFN,2.03
12,SDDFCTFQMVLEGGVCCTVCLNFN,1.75
13,SDDFCTFQMVLEGGVCCTVNLNFN,3.6
14,SDDFCTFQMVLEGGVCCTVWLNFN,2.71
15,SDDFCTFQMVLEGGVCCTVPLNFN,1.49
16,SDDFCTFQMVLEGGVCCTVLLNFN,1.03
17,RDDFCTFQMVLEGGVCCTVTLNFN,2.98
18,ADDFCTFQMVLEGGVCCTVTLNFN,3.07
19,HDDFCTFQMVLEGGVCCTVTLNFN,2.21
20,EDDFCTFQMVLEGGVCCTVTLNFN,1.75
21,DDDFCTFQMVLEGGVCCTVTLNFN,2.52
22,KDDFCTFQMVLEGGVCCTVTLNFN,3.01
23,TDDFCTFQMVLEGGVCCTVTLNFN,3.26
24,QDDFCTFQMVLEGGVCCTVTLNFN,1.76

row,Variant,protein stability index
1,SDDFCTFQMVLEGGVCCTGTLNFN,2.02
2,SDDFCTFQMVLEGGVCCTWTLNFN,2.61
3,SDDFCTFQMVLEGGVCCTLTLNFN,3.49
4,SDDFCTFQMVLEGGVCCTCTLNFN,3.15
5,SDDFCTFQMVLEGGVCCTATLNFN,1.95
6,SDDFCTFQMVLEGGVCCTVTLNFC,2.91
7,SDDFCTFQMVLEGGVCCTVTLNFQ,1.99
8,SDDFCTFQMVLEGGVCCTVTLNFP,3
9,SDDFCTFQMVLEGGVCCTVTLNFL,3.23
10,SDDFCTFQMVLEGGVCCTVTLNFF,3.55
11,SDDFCTFQMVLEGGVCCTVTLNFT,2.47
12,SDDFCTFQMVLEGGVCCWVTLNFN,1.95
13,SDDFCTFQMVLEGGVCCIVTLNFN,3.52
14,SDDFCTFQMVLEGGVCCVVTLNFN,3.91
15,SDDFCTFQMVLEGGVCCNVTLNFN,2.33
16,SDDFCTFQMVLEGGVCCEVTLNFN,3.76
17,SDDFCTFQMVLEGGVCCYVTLNFN,2.44
18,SDDFCTFQMVLEGGVCCMVTLNFN,2.07
19,SDDFCTFQMVLEGGVCCCVTLNFN,2.71
20,SDDFCTFQMVLEGGVCCFVTLNFN,2.37
21,SDDFCEFQMVLEGGVCCTVTLNFN,2.56
22,SDDFCMFQMVLEGGVCCTVTLNFN,3.02
23,SDDFCWFQMVLEGGVCCTVTLNFN,2.35
24,SDDFCNFQMVLEGGVCCTVTLNFN,2.54

row,Variant,protein stability index
1,SDDFCYFQMVLEGGVCCTVTLNFN,1.92
2,SDDFCKFQMVLEGGVCCTVTLNFN,2.04
3,SGDFCTFQMVLEGGVCCTVTLNFN,2.84
4,SEDFCTFQMVLEGGVCCTVTLNFN,3.11
5,SSDFCTFQMVLEGGVCCTVTLNFN,3.14
6,SQDFCTFQMVLEGGVCCTVTLNFN,3.58
7,SYDFCTFQMVLEGGVCCTVTLNFN,3.72
8,STDFCTFQMVLEGGVCCTVTLNFN,3.29
9,SMDFCTFQMVLEGGVCCTVTLNFN,1.27
10,SDDFCTFQMVLEAGVCCTVTLNFN,3.65
11,SDDFCTFQMVLEEGVCCTVTLNFN,2.48
12,SDDFCTFQMVLEVGVCCTVTLNFN,2.5
13,SDDFCTFQMVLERGVCCTVTLNFN,3.71
14,SDDFCTFQMVLEIGVCCTVTLNFN,2.35
15,SDDFCTFQMVLELGVCCTVTLNFN,4.34
16,SDDFCTFQMVLEMGVCCTVTLNFN,2.94
17,SDDFCTFQMVLENGVCCTVTLNFN,2.32
18,SDDFCTFQMVLEQGVCCTVTLNFN,3.22
19,SDDFCTFQMVLEKGVCCTVTLNFN,3.14
20,SDDFCTFQMVLEGRVCCTVTLNFN,1.6
21,SDDFCTFQMVLEGYVCCTVTLNFN,1.83
22,SDDFCTFQMVLEGNVCCTVTLNFN,1.78
23,SDDFCTFQMVLEGQVCCTVTLNFN,1.74
24,SDDFCTFQMVLEGCVCCTVTLNFN,2.19

row,Variant,protein stability index
1,SDDFCTFQMVLEGEVCCTVTLNFN,2.08
2,SDDFCTFQMVLEGAVCCTVTLNFN,2.87
3,SDDFCTFQMVLEGPVCCTVTLNFN,2.84
4,SDDFCTFQMVLEGKVCCTVTLNFN,2.74
5,SDDFCTFQMVLEGLVCCTVTLNFN,3.96
6,SDDFCTFQMVLEGGVTCTVTLNFN,3.75
7,SDDFCTFQMVLEGGVICTVTLNFN,3.88
8,SDDFCTFQMVLEGGVVCTVTLNFN,2.46
9,SDDFCTFQMVLEGGVQCTVTLNFN,2.45
10,SDDFCTFQMVLEGGVPCTVTLNFN,2.65
11,SDDFCTFQMVLEGGVKCTVTLNFN,2.95
12,SDDFCTFQMVLEGGVACTVTLNFN,4.12
13,SDDFCTFQMVLEGGVHCTVTLNFN,3.09
14,SDDFCTFQMVLEGGVFCTVTLNFN,1.78
15,SDDFCTFQMVLEGGVSCTVTLNFN,3.6
16,SDDFCTFQMVLEGGVGCTVTLNFN,3.63
17,SDDFCTFQMVLEGGVDCTVTLNFN,2.56
18,SDDFCTFQMVLSGGVCCTVTLNFN,3.99
19,SDDFCTFQMVLMGGVCCTVTLNFN,3.38
20,SDDFCTFQMVLCGGVCCTVTLNFN,2.46
21,SDDFCTFQMVLHGGVCCTVTLNFN,2.37
22,SDDFCTFQMVLEGGVCLTVTLNFN,3.21
23,SDDFCTFQMVLEGGVCWTVTLNFN,2.79
24,SDDFCTFQMVLEGGVCQTVTLNFN,2.87

row,Variant,protein stability index
1,SDDFCTFQMVLEGGVCKTVTLNFN,2.52
2,SDDFCTFQMVLEGGVCPTVTLNFN,2.66
3,SDDFCTFQMVLEGGVCETVTLNFN,1.21
4,SDDFCTFQMVLEGGVCHTVTLNFN,2.13
5,SDDFVTFQMVLEGGVCCTVTLNFN,3.65
6,SDDFKTFQMVLEGGVCCTVTLNFN,2.39
7,SDDFRTFQMVLEGGVCCTVTLNFN,3.13
8,SDDFHTFQMVLEGGVCCTVTLNFN,2.97
9,SDDFATFQMVLEGGVCCTVTLNFN,1.58
10,SDDFLTFQMVLEGGVCCTVTLNFN,3.9
11,SDDFCTFQMVFEGGVCCTVTLNFN,3.38
12,SDDFCTFQMVREGGVCCTVTLNFN,3.43
13,SDDFCTFQMVAEGGVCCTVTLNFN,1.26
14,SDDFCTFQMVPEGGVCCTVTLNFN,3.4
15,SDDFCTFQMVKEGGVCCTVTLNFN,2.9
16,SDDFCTFQMVHEGGVCCTVTLNFN,3.05
17,SDDFCTFQMVDEGGVCCTVTLNFN,3.52
18,SDDFCTFQMVVEGGVCCTVTLNFN,3.22
19,SDDFCTFQCVLEGGVCCTVTLNFN,2.77
20,SDDFCTFQLVLEGGVCCTVTLNFN,2.7
21,SDDFCTFQVVLEGGVCCTVTLNFN,2.59
22,SDDFCTFQKVLEGGVCCTVTLNFN,1.8
23,SDDFCTFQPVLEGGVCCTVTLNFN,1.27
24,SDDFCTFQQVLEGGVCCTVTLNFN,1.55

row,Variant,protein stability index
1,SDDFCTFQAVLEGGVCCTVTLNFN,2.43
2,SDDFCTFQIVLEGGVCCTVTLNFN,3.34
3,SDDFCTFQGVLEGGVCCTVTLNFN,3.57
4,SDDFCTFQHVLEGGVCCTVTLNFN,2.74
5,SDDFCTFQMVLEGGVCCTVTLNHN,2.43
6,SDDFCTFQMVLEGGVCCTVTLNPN,1.56
7,SDDFCTFQMVLEGGVCCTVTLNSN,2.62
8,SDDFCTFQMVLEGGVCCTVTLNIN,3.75
9,SDDFCTFQMVLEGGVCCTVTLNYN,3.05
10,SDDFCTFQMVLEGGVCCTVTLNAN,2.62
11,SDDFCTFQMFLEGGVCCTVTLNFN,4.27
12,SDDFCTFQMHLEGGVCCTVTLNFN,2.2
13,SDDFCTFQMKLEGGVCCTVTLNFN,2.56
14,SDDFCTFQMPLEGGVCCTVTLNFN,2.35
15,SDDFCTFQMNLEGGVCCTVTLNFN,1.83
16,SDDFCTFQMSLEGGVCCTVTLNFN,2.04
17,SDDFCTFQMDLEGGVCCTVTLNFN,3.42
18,SDDFCTFQMLLEGGVCCTVTLNFN,2.58
19,SDDFCTFQMILEGGVCCTVTLNFN,1
20,SDDFCTFQMTLEGGVCCTVTLNFN,2.36
21,SDDFCTFQMCLEGGVCCTVTLNFN,3.77
22,SDDFCTFQMMLEGGVCCTVTLNFN,1.84
23,SDDFCTFQMVLEGGKCCTVTLNFN,2.27
24,SDDFCTFQMVLEGGRCCTVTLNFN,3.84

row,Variant,protein stability index
1,SDDFCTFQMVLEGGDCCTVTLNFN,2.58
2,SDDFCTFQMVLEGGICCTVTLNFN,1.72
3,SDDFCTFQMVLEGGMCCTVTLNFN,3.15
4,SDDFCTFQMVLEGGCCCTVTLNFN,2.55
5,SDDFCTFQMVLEGGQCCTVTLNFN,2.94
6,SDDFCTFQMVLEGGYCCTVTLNFN,4.1
7,SDIFCTFQMVLEGGVCCTVTLNFN,1.7
8,SDQFCTFQMVLEGGVCCTVTLNFN,2.69
9,SDLFCTFQMVLEGGVCCTVTLNFN,2.58
10,SDKFCTFQMVLEGGVCCTVTLNFN,3.76
11,SDPFCTFQMVLEGGVCCTVTLNFN,3.01
12,SDDFCTVQMVLEGGVCCTVTLNFN,1.98
13,SDDFCTWQMVLEGGVCCTVTLNFN,2.67
14,SDDFCTHQMVLEGGVCCTVTLNFN,2.26
15,SDDFCTDQMVLEGGVCCTVTLNFN,1.59
16,SDDFCTEQMVLEGGVCCTVTLNFN,2.03
17,SDDFCTPQMVLEGGVCCTVTLNFN,1.46
18,SDDFCTYQMVLEGGVCCTVTLNFN,2.77
19,SDDFCTKQMVLEGGVCCTVTLNFN,1.93
20,SDDFCTNQMVLEGGVCCTVTLNFN,1.63
